Measured values: patent US20240270846A1 (published 2024)
Substitutions are numbered along the chain they refer to. Numbers in names are those of the source. Values belong to the binder of their own block, whether it stands above or below them.

Molecular target: T1, CD3 epsilon homodimer protein (UniProt P07766 23-126)
T1 construct: also called CD3 (CD3 epsilon)
Test: SPR (Biacore T200), CD3e homodimer on CM4 chip, antibody as analyte; KD ratio vs unaltered GLS3000;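 further: CD3 epsilon homodimer amine-coupled to the sensor surface, antibodies injected as analyte at 25 °C with HBS-EP+ running buffer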

T1 sequence (P07766 23-126): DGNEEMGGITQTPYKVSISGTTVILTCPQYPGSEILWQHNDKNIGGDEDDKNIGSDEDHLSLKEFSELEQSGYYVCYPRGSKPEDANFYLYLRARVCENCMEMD

B1: CE115HA000/GLS3000 G89F one-arm antibody (antibody, human IgG1, kappa, L234A L235A, N297A, name in Kabat numbering)
heavy: QVQLVESGGGVVQPGRSLRLSCAASGFTFSNAWMHWVRQAPGKGLEWVAQIKAKSNNYATYYAESVKGRFTISRDDSKNSLYLQMNSLKTEDTAVYYCRYVHYGAYYGVDAWGQGTTVTVSSASTKGPSVFPLAPSSKSTSGGTAALGCLVKDYFPEPVTVSWNSGALTSGVHTFPAVLQSSGLYSLSSVVTVPSSSLGTQTYICNVNHKPSNTKVDKKVEPKSCDKTHTCPPCPAPEAAGGPSVFLFPPKPKDTLMISRTPEVTCVVVDVSHEDPEVKFNWYVDGVEVHNAKTKPREEQYASTYRVVSVLTVLHQDWLNGKEYKCKVSNKALPAPIEKTISKAKGQPREPQVYTLPPSRCELTKNQVSLSCAVKGFYPSDIAVEWESNGQPENNYKTTPPVLDSDGSFFLVSKLTVDKSRWQQGNVFSCSVMHEALHNHYTQKSLSLSPDYKDDDDK
chain: EPKSSDKTHTCPPCPAPELLGGPSVFLFPPKPKDTLMISRTPEVTCVVVDVSHEDPEVKFNWYVDGVEVHNAKTKPREEQYNSTYRVVSVLTVLHQDWLNGKEYKCKVSNKALPAPIEKTISKAKGQPREPQVCTLPPSRDELTKNQVSLWCLVKGFYPSDIAVEWESNGQPENNYKTTPPVLDSDGSFFLYSKLTVDKSRWQQGNVFSCSVMHEALHNRYTQKSLSLSP
light: DIVMTQSPLSLPVTPGEPASISCRSSQSLVHSNRNTYLHWYQQKPGQAPRLLIYKVSNRFSGVPDRFSGSGSGTDFTLKISRVEAEDVGVYYCFQGTQVPYTFGQGTKLEIKRTVAAPSVFIFPPSDEQLKSGTASVVCLLNNFYPREAKVQWKVDNALQSGNSQESVTEQDSKDSTYSLSSTLTLSKADYEKHKVYACEVTHQGLSSPVTKSFNRGEC
notes: one-arm IgG1
KD ratio to GLS3000: 3.34 ratio

B2: CE115HA000/GLS3000 H34E one-arm antibody (antibody, human IgG1, kappa, L234A L235A, N297A, name in Kabat numbering)
heavy: B1 heavy
chain: B1 chain
light: B1 light with H39E, F94G
notes: one-arm IgG1
KD ratio to GLS3000: 8.03 ratio

B4: CE115HA000/GLS3000 H34G one-arm antibody (antibody, human IgG1, kappa, L234A L235A, N297A, name in Kabat numbering)
heavy: B1 heavy
chain: B1 chain
light: B1 light with H39G, F94G
notes: one-arm IgG1
KD ratio to GLS3000: 1.08 ratio

B6: CE115HA000/GLS3000 G91D one-arm antibody (antibody, human IgG1, kappa, L234A L235A, N297A, name in Kabat numbering)
heavy: B1 heavy
chain: B1 chain
light: B1 light with F94G, G96D
notes: one-arm IgG1
KD ratio to GLS3000: 44.8 ratio

B7: CE115HA000/GLS3000 G89L one-arm antibody (antibody, human IgG1, kappa, L234A L235A, N297A, name in Kabat numbering)
heavy: B1 heavy
chain: B1 chain
light: B1 light with F94L
notes: one-arm IgG1
KD ratio to GLS3000: 2.38 ratio

B9: CE115HA000/GLS3000 G89M one-arm antibody (antibody, human IgG1, kappa, L234A L235A, N297A, name in Kabat numbering)
heavy: B1 heavy
chain: B1 chain
light: B1 light with F94M
notes: one-arm IgG1
KD ratio to GLS3000: 1.96 ratio

B11: CE115HA000/GLS3000 G91A one-arm antibody (antibody, human IgG1, kappa, L234A L235A, N297A, name in Kabat numbering)
heavy: B1 heavy
chain: B1 chain
light: B1 light with F94G, G96A
notes: one-arm IgG1
KD ratio to GLS3000: 28.1 ratio

B12: CE115HA000/GLS3000 G89I one-arm antibody (antibody, human IgG1, kappa, L234A L235A, N297A, name in Kabat numbering)
heavy: B1 heavy
chain: B1 chain
light: B1 light with F94I
notes: one-arm IgG1
KD ratio to GLS3000: 1.11 ratio

B14: CE115HA000/GLS3000 G91E one-arm antibody (antibody, human IgG1, kappa, L234A L235A, N297A, name in Kabat numbering)
heavy: B1 heavy
chain: B1 chain
light: B1 light with F94G, G96E
notes: one-arm IgG1
KD ratio to GLS3000: 48.5 ratio

B16: CE115HA000/GLS3000 G89H one-arm antibody (antibody, human IgG1, kappa, L234A L235A, N297A, name in Kabat numbering)
heavy: B1 heavy
chain: B1 chain
light: B1 light with F94H
notes: one-arm IgG1
KD ratio to GLS3000: 1.44 ratio

B19: CE115HA000/GLS3000 G89N one-arm antibody (antibody, human IgG1, kappa, L234A L235A, N297A, name in Kabat numbering)
heavy: B1 heavy
chain: B1 chain
light: B1 light with F94N
notes: one-arm IgG1
KD ratio to GLS3000: 1.2 ratio

B20: CE115HA000/GLS3000 H34D one-arm antibody (antibody, human IgG1, kappa, L234A L235A, N297A, name in Kabat numbering)
heavy: B1 heavy
chain: B1 chain
light: B1 light with H39D, F94G
notes: one-arm IgG1
KD ratio to GLS3000: 2100 ratio

B22: CE115HA000/GLS3000 H34F one-arm antibody (antibody, human IgG1, kappa, L234A L235A, N297A, name in Kabat numbering)
heavy: B1 heavy
chain: B1 chain
light: B1 light with H39F, F94G
notes: one-arm IgG1
KD ratio to GLS3000: 3.5 ratio

B24: CE115HA000/GLS3000 G89K one-arm antibody (antibody, human IgG1, kappa, L234A L235A, N297A, name in Kabat numbering)
heavy: B1 heavy
chain: B1 chain
light: B1 light with F94K
notes: one-arm IgG1
KD ratio to GLS3000: 1.8 ratio

Further lines, results first:

KD ratio to GLS3000: 1.24 ratio
B3: CE115HA000/GLS3000 H34S one-arm antibody (antibody, human IgG1, kappa, L234A L235A, N297A, name in Kabat numbering)
heavy: B1 heavy
chain: B1 chain
light: B1 light with H39S, F94G
notes: one-arm IgG1

KD ratio to GLS3000: 0.89 ratio
B5: CE115HA000/GLS3000 H34I one-arm antibody (antibody, human IgG1, kappa, L234A L235A, N297A, name in Kabat numbering)
heavy: B1 heavy
chain: B1 chain
light: B1 light with H39I, F94G
notes: one-arm IgG1

KD ratio to GLS3000: 4.1 ratio
B8: CE115HA000/GLS3000 H34K one-arm antibody (antibody, human IgG1, kappa, L234A L235A, N297A, name in Kabat numbering)
heavy: B1 heavy
chain: B1 chain
light: B1 light with H39K, F94G
notes: one-arm IgG1

KD ratio to GLS3000: 1.1 ratio
B10: CE115HA000/GLS3000 H34T one-arm antibody (antibody, human IgG1, kappa, L234A L235A, N297A, name in Kabat numbering)
heavy: B1 heavy
chain: B1 chain
light: B1 light with H39T, F94G
notes: one-arm IgG1

KD ratio to GLS3000: 1.22 ratio
B13: CE115HA000/GLS3000 H34P one-arm antibody (antibody, human IgG1, kappa, L234A L235A, N297A, name in Kabat numbering)
heavy: B1 heavy
chain: B1 chain
light: B1 light with H39P, F94G
notes: one-arm IgG1

KD ratio to GLS3000: 1.04 ratio
B15: CE115HA000/GLS3000 H34V one-arm antibody (antibody, human IgG1, kappa, L234A L235A, N297A, name in Kabat numbering)
heavy: B1 heavy
chain: B1 chain
light: B1 light with H39V, F94G
notes: one-arm IgG1

KD ratio to GLS3000: 2.84 ratio
B17: CE115HA000/GLS3000 H34N one-arm antibody (antibody, human IgG1, kappa, L234A L235A, N297A, name in Kabat numbering)
heavy: B1 heavy
chain: B1 chain
light: B1 light with H39N, F94G
notes: one-arm IgG1

KD ratio to GLS3000: 3.16 ratio
B18: CE115HA000/GLS3000 H34M one-arm antibody (antibody, human IgG1, kappa, L234A L235A, N297A, name in Kabat numbering)
heavy: B1 heavy
chain: B1 chain
light: B1 light with H39M, F94G
notes: one-arm IgG1

KD ratio to GLS3000: 1.03 ratio
B21: CE115HA000/GLS3000 H34L one-arm antibody (antibody, human IgG1, kappa, L234A L235A, N297A, name in Kabat numbering)
heavy: B1 heavy
chain: B1 chain
light: B1 light with H39L, F94G
notes: one-arm IgG1

KD ratio to GLS3000: 4.6 ratio
B23: CE115HA000/GLS3000 H34Q one-arm antibody (antibody, human IgG1, kappa, L234A L235A, N297A, name in Kabat numbering)
heavy: B1 heavy
chain: B1 chain
light: B1 light with H39Q, F94G
notes: one-arm IgG1
